In paper PMC3778555:
Read-outs that look alike come from different tables or passages of the source.

Key:
Assay in all cases: EMSA
ΔN20C17-HMGA1a [1] = target: T1, ΔN20C17-HMGA1a (human, UniProt P17096 21-91)
ΔN20C17-HMGA1a [2] = target: T1, ΔN20C17-HMGA1a; remark: listed apart in the source
ΔN20C17-HMGA1b [3] = target: T2, ΔN20C17-HMGA1b (human, UniProt P17096-2 21-80)
ΔN20C17-HMGA1a [4] = target: T1, ΔN20C17-HMGA1a; remark: listed apart in the source
ΔN20C17-HMGA1a [5] = target: T1, ΔN20C17-HMGA1a; remark: listed apart in the source
ΔN20C17-HMGA1a [6] = target: T1, ΔN20C17-HMGA1a; remark: listed apart in the source
ΔN20C17-HMGA1a [7] = target: T1, ΔN20C17-HMGA1a; remark: listed apart in the source
ΔN20C17-HMGA1b [8] = target: T2, ΔN20C17-HMGA1b; remark: listed apart in the source

B1: A5-DNA (dsDNA)
DNA 1: GGCCCCGCGAAAAACCCGGCGGG
DNA 2: CCCGCCGGGTTTTTCGCGGGGCC
ΔN20C17-HMGA1a [1]
  binding result: binds

B2: A19-DNA (dsDNA)
DNA 1: CCCAAAAAAAAAAAAAAAAAAACC
DNA 2: GGTTTTTTTTTTTTTTTTTTTGGG
ΔN20C17-HMGA1a [2]
  binding result: binds
ΔN20C17-HMGA1b [3]
  binding result: binds

B3: A9T9-DNA (dsDNA)
DNA 1: CGAAAAAAAAATTTTTTTTTCG
DNA 2: CGAAAAAAAAATTTTTTTTTCG
ΔN20C17-HMGA1a [4]
  binding result: binds

B4: A18-DNA (dsDNA)
DNA 1: CCCAAAAAAAAAAAAAAAAAACC
DNA 2: GGTTTTTTTTTTTTTTTTTTGGG
ΔN20C17-HMGA1a [5]
  binding result: binds

B5: T9A9-DNA (dsDNA)
DNA 1: GCTTTTTTTTTAAAAAAAAAGC
DNA 2: GCTTTTTTTTTAAAAAAAAAGC
ΔN20C17-HMGA1a [6]
  binding result: binds

B6: A5T5-DNA (dsDNA)
DNA 1: CGAAAAATTTTTCG
DNA 2: CGAAAAATTTTTCG
ΔN20C17-HMGA1a [7]
  binding result: binds
ΔN20C17-HMGA1b [8]
  binding result: binds
